From US9649378B2, “Cancer methods” (priority 2010, dated 2017)
Entries after “also recorded” stand apart in the source; their conditions may differ.

How the values were obtained:
[1] = tested on: lung cancer cells (H69, H501, A549, HCC95); test: in vitro growth assay (MTT-based) with rOPCML, lung lines; format: cell-based; conditions: 10 μM rOPCML
Method: (§1) (B) a 96 h in vitro SKOV-3 growth assay with 2 μM rOPCML administered to growth media. Time points were collected every 24 h and normalised to control cells treated with vehicle only. (C) Normal ovarian surface epithelial cells (OSE-C2) and a panel of ovarian (SKOV-3, IGROV, OVISE, OVCAR-5, A2780, PEA1 and PEA2), HER2-positive (MDA-231) and negative (BT-474) breast cancer cells and non-adherant (H69, H501 small-cell) and adherent (A549 carcinoma, HCC95 non-SSLC squamous) lung cancer cells were subjected to an in vitro growth assay with 10 μM of rOPCML. Time points were collected at 24 and 48 h and cell growth was normalised to vehicle only controls. Cell viability was quantified in all experiments using an MU-based assay and measured at 570 nm. Caspase cleavage-based apoptosis assays using (D) A2780 and (E) SKOV-3 were undertaken with administration of rOPCML (2, 5 and 10 μM) over 24 h. Caspase cleavage was quantified using the GaspaseGlo kit and normalised to cell viability.

[2] = tested on: normal ovarian surface epithelial cells (OSE-C2); test: in vitro growth assay (MTT-based) with rOPCML; format: cell-based; conditions: OSE-C2, OPCML expressing
Method: (§2) (A) SKOV-3 cells were subjected to a 48 h in vitro growth assay with varying concentrations of OPCML administration. (B) A 96 h in vitro SKOV-3 growth assay with 2 μM rOPCML administered to growth media. Time points were collected every 24 h and normalised to control cells treated with vehicle only. Cell viability was quantified using MTT and measured at 570 nm. (C) Upper panel—OSE-C2 and SKOV-3 cells were subjected to a 48 h in vitro growth assay with varying OPCML concentrations (0.5, 1, 2, 5 and 10 μM); lower panel—normal ovarian surface epithelial cells (OSE-C2) and a panel of ovarian (SKOV-3, IGROV, OVISE, OVCAR-5, A2780, PEA1 and PEA2) and […] breast cancer cells were subjected to an in vitro growth assay with 10 μm OPCML. Time points were collected at 24 h and 48 h and cell growth was monitored to vehicle only controls. Cell viability was quantified in all experiments using an MTT-based assay and measured at 570 nm.
as §1, with “viability. […]” for “viability.”

SKOV-3 cells = test: in vitro growth assay (MTT-based) with rOPCML added to growth media; conditions: 0.5-10 μM for 48 h or 2 μM for 96 h
Method: as §2
(B) a 96 h in vitro SKOV-3 growth assay with 2 μM rOPCML administered to growth media. Time points were collected every 24 h and normalised to control cells treated with vehicle only. […] Cell viability was quantified in all experiments using an MU-based assay and measured at 570 nm. […] Caspase cleavage was quantified using the GaspaseGlo kit and normalised to cell viability. […]

[3] = tested on: SKOV-3 and A2780 ovarian cancer cells; test: Annexin V FACS and caspase-glo apoptosis assays with r-OPCML; format: cell-based
Method: as §1
Purified recombinant human OPCML domain 1-3 protein (r-OPCML) (FIG. 8) was produced from the bacterial expression vector (pHis-Trx) subcloned with domains 1-3 of OPCML, excluding the signal peptide and GPI anchor sequences (FIG. 8A).

[4] = tested on: A2780 cancer cells injected intraperitoneally; test: intraperitoneal tumour growth assay, r-OPCML versus BSA; format: in vivo, nude mouse; conditions: A2780 model; for IP tumour growth / tumour weight: 1 ml (10 μM) IP twice weekly, 3 weeks; for IP tumour growth / tumour weight / ascites formation / volume / number of IP peritoneal deposits / peritoneal dissemination: versus BSA
Method: (§3) Comparison of r-OPCML and control protein (bovine serum albumen) treated A2780 and SKOV-3 cell lines. (A) Gross anatomical observation of the animals (B) Intraperitoneal tumour growth assay. Tumours were removed, weighed and photographed after 3 weeks of twice-weekly 1 mL intraperitoneal injection of 10 μM r-OPCML or BSA. Representative A2780 and SKOV-3 tumour xenografts from 4 animals are presented. A scale bar is shown. (C) mean tumour weight, (D) number of deposits and (E) volume of ascites removed per mouse from the intraperitoneal assay presented in B. Comparison is shown between tumours and ascites collected from BSA- (−) and r-OPCML-treated (+) mice. (F) Western blot analysis of recovered tumours from control (BSA) and r-OPCML treated animals recapitulates in-vitro findings.
(§4) In view of these in-vitro findings, we proceeded to determine whether r-OPCML protein had potential and relevance as an in-vivo tumour suppressor therapy. Mice with either SKOV-3 or A2780 cancer cells injected intraperitoneally (IP), after tumour establishment, received twice-weekly IP injections of either 1 ml (10 μM) bovine serum albumin (BSA) or 1 ml (10 μM) r-OPCML.

[5] = tested on: SKOV-3 cancer cells injected intraperitoneally; test: as above; format: in vivo, nude mouse; conditions: for IP tumour growth / tumour weight: 1 ml (10 μM) IP twice weekly, 3 weeks
Method: as §3, §4

[6] = tested on: HER2-positive (MDA-231) and negative (BT-474) breast cancer cells; test: in vitro growth assay (MTT-based) with rOPCML, breast lines; format: cell-based; conditions: for breast cancer cell lines growth-inhibited / killed, of lines tested: both HER2 positive and HER2 negative
Method: (§5) We have tested 0.5, 1, 2, 5 and 10 μM of recombinant […] human OPCML in vitro, and there is a linear dose response which has not yet peaked. […] The physician skilled in the art will be able to identify suitable doses based upon this information and their skill in the art.
as §2
as §1, with “Caspase cleavage-based apoptosis assays using (D) A2780 and (E) SKOV-3 were undertaken with administration of rOPCML (2, 5 and 10 μM) over 24 h.” left out

[7] = tested on: ovarian cancer cell lines (SKOV-3, IGROV, OVISE, OVCAR-5, A2780, PEA1 and PEA2); test: in vitro growth assay (MTT-based) with rOPCML, ovarian panel; format: cell-based; conditions: for growth of ovarian and breast cancer cell lines: 10 μM, 24 h and 48 h, versus vehicle only; for ovarian cancer cell lines growth-inhibited / killed, of lines tested: in vitro
Method: as §5, §2, §1

[8] = tested on: receptor tyrosine kinase signaling in SKOV-3 and A2780 cells; test: Western blot / IFM of RTKs and downstream signalling after exogenous OPCML; format: cell-based; conditions: for RTK levels and RTK signalling: 2 μM for 48 h, Western blot
Method: FIG. 9: Cellular uptake of recombinant OPCML. SKOV-3 cells were incubated with vehicle alone or vehicle including 2 μM OPCML for 24 h. Cells were then washed 3× with PBS and fixed with 4% PFA. Cells were then prepared for IFM using rabbit α-HER2 mAb and mouse α-OPCML mAb. Goat α-rabbit alexa-488 and α-mouse alexa-555 secondary antibodies were used. Slides were imaged using a Leica SP5 confocal microscope.
(§6) (A) Western Blot analysis of pHER, tHER2, tEGFR, pEGFR, tFGFR, pFGFR proteins from SKOV-3 cells untreated, treated with vehicle only or OPCML (2 μM) for 48 h. (B) Western blot analysis of pAKT, tAKT, pERK, tERK proteins from SKOV-3 cells untreated, treated with vehicle only or OPCML (2 μM) for 48 h. Protein loading was standardised by BCA-assay and β-tubulin was used as a loading control.
as §6, with “SKOV-3 and A2780” for “SKOV-3”, “cells” for “cells untreated,”, “tERK,” for “tERK”

[9] = SKOV-3 model, versus BSA, listed as rOPCML
[10] = listed as recombinant full length human OPCML
[11] = 0.5, 1, 2, 5 and 10 μM tested in vitro, ovarian and breast cancer cell lines

B1: r-OPCML: Purified recombinant human OPCML domain 1-3 protein from E. coli, excluding signal peptide and GPI anchor sequences; SEQ ID No 5 (protein, listed as Homo sapiens)
chain: PKAMDNVTVRQGESATLRCTIDDRVTRVAWLNRSTILYAGNDKWSIDPRVIILVNTPTQYSIMIQNVDVYDEGPYTCSVQTDNHPKTSRVHLIVQVPPQIMNISSDITVNEGSSVTLLCLAIGRPEPTVTWRHLSVKEGQGFVSEDEYLEISDIKRDQSGEYECSALNDVAAPDVRKVKITVNYPPYISKAKNTGVSVGQKGILSCEASAVPMAEFQWFKEETRLATGLDGMRIENKGRMSTLTFFNVSEKDYGNYTCVATNKLGNTNASIT
- lung cancer cell lines with profoundly inhibited cell growth, of lines tested [1]: 5 of 5
- effect on normal ovarian surface epithelial cells [2]: without affecting normal ovarian surface epithelial cells
- effect on normal ovarian surface epithelial cells ([2]; listed as OPCML): sparing normal ovarian surface epithelial cells
- effect on normal ovarian surface epithelial cells ([2]; listed as rOPCML): no effect
- SKOV-3 cell growth in vitro (SKOV-3 cells): specific, dose-dependent inhibition of cell growth
- SKOV-3 cell growth in vitro (SKOV-3 cells; listed as exogenous OPCML): inhibits SKOV-3 cell growth
- apoptosis in caspase-glo assay ([3]; 2, 5 and 10 μM over 24 h): induces apoptosis in both these cell lines in a dose dependent fashion
- early apoptosis, time post exposure ([3]; Annexin V FACS apoptosis assay, depending on cell line): 2 to 6 h
- IP tumour growth / tumour weight [4]: significantly and profoundly suppressed
- IP tumour growth / tumour weight ([4]; listed as Recombinant OPCML): reduces tumour growth
- IP tumour growth / tumour weight ([4]; listed as rOPCML): profound inhibition
- condition of animals at 3 weeks ([4]; BSA controls deteriorating): remained well
- ascites formation / volume [4]: significantly and profoundly suppressed
- number of IP peritoneal deposits / peritoneal dissemination [4]: profoundly inhibited
- ascites formation / volume ([4]; listed as rOPCML): profound inhibition
- number of IP peritoneal deposits / peritoneal dissemination ([4]; listed as rOPCML): profound inhibition
- RTKs in recovered IP tumour (Western blotting) ([5]; SKOV3 IP tumour, r-OPCML versus BSA treated): same spectrum of RTKs inhibited
- peritoneal dissemination ([5]; SKOV3 model, versus BSA): profound inhibition
- IP tumour growth / tumour weight ([5]; SKOV-3 model, versus BSA): significantly and profoundly suppressed
- IP tumour growth / tumour weight ([5]; SKOV-3 model, versus BSA, listed as Recombinant OPCML): reduces tumour growth
- IP tumour growth / tumour weight [5, 9]: profound inhibition
- condition of animals at 3 weeks ([5]; SKOV-3 model, BSA controls deteriorating): remained well
- ascites formation / volume ([5]; SKOV-3 model, versus BSA): significantly and profoundly suppressed
- ascites formation / volume [5, 9]: profound inhibition
- growth of HER2+ and HER2− breast cancer cell line ([6]; 10 μM, 24 h and 48 h): profoundly inhibited
- breast cancer cell lines growth-inhibited / killed, of lines tested [6]: 2 of 2
- breast cancer cell lines growth-inhibited / killed, of lines tested [6, 10]: 2/2
- growth of ovarian and breast cancer cell lines ([7]; listed as Exogenous OPCML): inhibits growth
- growth of ovarian and breast cancer cell lines ([7]; listed as OPCML): inhibits growth
- growth of ovarian and breast cancer cell lines ([7]; listed as rOPCML): specifically inhibits
- concentration from which inhibition of cell growth is seen [7, 11]: ≥ 2 μm
- concentration giving frank cell death [7, 11]: 5 to 10 µM
- response of PEA2 cell line ([7]; PEA2): resistance
- ovarian cancer cell lines growth-inhibited / killed, of lines tested [7]: 6 of 7
- ovarian cancer cell lines growth-inhibited / killed, of lines tested ([7]; listed as rOPCML): 6/7
- ovarian cancer cell lines growth-inhibited / killed, of lines tested [7, 10]: 6/7
- RTK levels and RTK signalling [8]: potently downregulated
- RTK levels and RTK signalling ([8]; listed as Exogenous OPCML): inhibits RTK signaling
- RTK levels and RTK signalling ([8]; listed as exogenous OPCML): inhibits receptor tyrosine kinase signaling
- RTK levels and RTK signalling ([8]; listed as rOPCML): abrogates total RTK levels and inhibits RTK signalling
- ERK protein levels ([8]; SKOV-3, 2 μM OPCML 48 h): downregulates
- HER2 protein level ([8]; SKOV-3, 2 μM OPCML, listed as exogenous OPCML): downregulation of HER2; also recorded: downregulates
- pERK and pAKT ([8]; SKOV-3 and A2780, immunoblotting): abrogating pERK and pAKT
- AKT S473 phosphorylation ([8]; administration to cancer cells in vitro): inhibits phospho S473 AKT; also recorded: inhibits AKT s473 phosphorylation
